Patent US20210380703A1 (RIGEL PHARMACEUTICALS, published 2021)

Legend:
Goat anti-Human Kappa = biological target: T1, Goat anti-Human Kappa; assay: ELISA; positive control
T1 construct: Positive control; also called biotinylated goat anti-human kappa light chain
Summary of the method: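 Monoclonal antibodies were first applied to human or mouse ACVR2A, alongside biotinylated goat anti-human kappa light chain (positive control) and human Fc (negative control); binding was then determined by ELISA.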

Mouse ACVR2A = Mouse ACVR2A (mouse, UniProt P27038 20-135, limits assumed); assay: ELISA
Summary of the method: (§1)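 mAb binding by ELISA; antigens: hu ACVR2A, mu ACVR2A; pos ctrl biotinylated goat anti-hu kappa LC; neg ctrl hu Fc.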

Human ACVR2A = biological target: T2, Human ACVR2A (human, UniProt P27037 20-135, limits assumed); assay: ELISA
T2 construct: also called activin receptor, type II A
Summary of the method: as §1
Note: test concentration or dose not given here.

Mouse ACVR2A, sequence (P27038 20-135 limits assumed): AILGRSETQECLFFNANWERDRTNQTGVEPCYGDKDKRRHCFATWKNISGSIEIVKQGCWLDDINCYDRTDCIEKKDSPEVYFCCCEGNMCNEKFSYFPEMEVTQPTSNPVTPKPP
T2 sequence (P27037 20-135 limits assumed): as the sequence (P27038 20-135 limits assumed) above, with R20K, I73V counted along it

optical density (Goat anti-Human Kappa)	optical density (Mouse ACVR2A)	optical density (Human ACVR2A)	Binder
3.07 OD	3.62 OD	3.64 OD	373_A06 (antibody, V domains shown, VH/VL only) VH: EVQLLESGGGLVQPGGSLRLSCAASGFTFSSYSMNWVRQAPGKGLEWVSGINYNGGYKSYADSVKGRFTISRDNSKNTLYLQMNSLRAEDTAVYYCARGATWHDTHLDYWGQGTLVTVSS VL: not shown
3.24 OD	3.62 OD	3.6 OD	373_B09 (antibody, V domains shown, VH/VL only) VH: EVQLLESGGGLVQPGGSLRLSCAASGFTFDSYSMNWVRQAPGKGLEWVSGINYNGGYKSYADSVKGRFTISRDNSKNTLYLQMNSLRAEDTAVYYCARGATWHDTHLDYWGQGTLVTVSS VL: DIQMTQSPSSLSASVGDRVTITCRASQSILSYLNWYQQKPGKAPKLVIYAATSLASGVPSRFSGSGSGTDFTLTISSLQPEDFATYYCQQSYETPLTFGGGTKVEIK
3.09 OD	3.62 OD	3.62 OD	375_A03 (antibody, V domains shown, VH/VL only) VH: EVQLLESGGGLVQPGGSLRLSCAASGFTFDSYSMNWVRQAPGKGLEWVAGINYNGGYTSYADSVKGRFTISRDNSKNTLYLQMNSLRAEDTAVYYCARGATWHDTHLDYWGQGTLVTVSS VL: DIQMTQSPSSLSASVGDRVTITCRASQSILTYLNWYQQKPGKAPKLLIYAATSRHSGVPSRFSGSGSGTDFTLTISSLQPEDFATYYCQQSYDNPLTFGGGTKVEIK
3.19 OD	3.63 OD	3.72 OD	376_A02 (antibody, V domains shown, VH/VL only) VH: EVQLLESGGGLVQPGGSLRLSCAASGFTFSSYSMNWVRQAPGKGLEWVAGINYNGGYKSYADSVKGRFTISRDNSKNTLYLQMNSLRAEDTAVYYCARGATWHDTHLDYWGQGTLVTVSS VL: DIQMTQSPSSLSASVGDRVTITCRASQSILSYLNWYQQKPGKAPKLLIYAATSRASGVPSRFSGSGSGTDFTLTISSLQPEDFATYYCQQSYDLPLTFGGGTKVEIK
3.21 OD	3.57 OD	3.63 OD	373_D06 (antibody, V domains shown, VH/VL only) VH: EVQLLESGGGLVQPGGSLRLSCAASGFTFSSYSMNWVRQAPGKGLEWVAGINYNGGYTSYADSVKGRFTISRDNSKNTLYLQMNSLRAEDTAVYYCARGATWHDTHLDYWGQGTLVTVSS VL: DIQMTQSPSSLSASVGDRVTITCRASQSIVTYLNWYQQKPGKAPKLLIYAATSRASGVPSRFSGSGSGTDFTLTISSLQPEDFATYYCQQSYDTPLTFGGGTKVEIK
3.18 OD	3.64 OD	3.65 OD	376_A05 (antibody, V domains shown, VH/VL only) VH: EVQLLESGGGLVQPGGSLRLSCAASGFTFSSYSMNWVRQAPGKGLEWVAGINYNSGYKGYADSVKGRFTISRDNSKNTLYLQMNSLRAEDTAVYYCARGATWHDTHLDYWGQGTLVTVSS VL: DIQMTQSPSSLSASVGDRVTITCRASQSILTYLNWYQQKPGKAPKLLIYAATSRASGVPSRFSGSGSGTDFTLTISSLQPEDFATYYCQQSYNTPLTFGGGTKVEIK
3.13 OD	3.62 OD	3.61 OD	373_F07 (antibody, V domains shown, VH/VL only) VH: EVQLLESGGGLVQPGGSLRLSCAASGFTFSSYSMNWVRQAPGKGLEWVSGINYNSGYKSYADSVKGRFTISRDNSKNTLYLQMNSLRAEDTAVYYCARGATWHDTHLDYWGQGTLVTVSS VL: DIQMTQSPSSLSASVGDRVTITCRASQSILSYLNWYQQKPGKAPKLLIYAATSLASGVPSRFSGSGSGTDFTLTISSLQPEDFATYYCQQSYETPLTFGGGTKVEIK
3.26 OD	3.61 OD	3.59 OD	375_C11 (antibody, V domains shown, VH/VL only) VH: EVQLLESGGGLVQPGGSLRLSCAASGFTFSSYSMNWVRQAPGKGLEWVSSINYNGGYTSYADSVKGRFTISRDNSKNTLYLQMNSLRAEDTAVYYCARGATWHDTHLDYWGQGTLVTVSS VL: DIQMTQSPSSLSASVGDRVTITCRASQSILSYVNWYQQKPGKAPKLLIYAATSRHSGVPSRFSGSGSGTDFTLTISSLQPEDFATYYCQQSYDTPLTFGGGTKVEIK
3.05 OD	3.65 OD	3.63 OD	374_D04 (antibody, V domains shown, VH/VL only) VH: EVQLLESGGGLVQPGGSLRLSCAASGFTFSSYSMNWVRQAPGKGLEWVAGINYNGGYTSYADSVKGRFTISRDNSKNTLYLQMNSLRAEDTAVYYCARGATWHDTHLDYWGQGTLVTVSS VL: DIQMTQSPSSLSASVGDRVTITCRASQSILSYLNWYQQKPGKAPKLVIYAATSRHSGVPSRFSGSGSGTDFTLTISSLQPEDFATYYCQQSYDTPLTFGGGTKVEIK
3.1 OD	3.65 OD	3.61 OD	374_D09 (antibody, V domains shown, VH/VL only) VH: EVQLLESGGGLVQPGGSLRLSCAASGFTFDSYGMNWVRQAPGKGLEWVANINYNGGYKGYADSVKGRFTISRDNSKNTLYLQMNSLRAEDTAVYYCARGATWHDTHLDYWGQGTLVTVSS VL: DIQMTQSPSSLSASVGDRVTITCRASQSIISYVNWYQQKPGKAPKLLIYAATSLASGVPSRFSGSGSGTDFTLTISSLQPEDFATYYCQQSYDTPLTFGGGTKVEIK
2.99 OD	3.68 OD	3.65 OD	374_A04 (antibody, V domains shown, VH/VL only) VH: EVQLLESGGGLVQPGGSLRLSCAASGFTFSSYSMNWVRQAPGKGLEWVAGINYNGGYTSYADSVKGRFTISRDNSKNTLYLQMNSLRAEDTAVYYCARGATWHDTHLDYWGQGTLVTVSS VL: DIQMTQSPSSLSASVGDRVTITCRASQSILTYLNWYQQKPGKAPKLVIYAATSRASGVPSRFSGSGSGTDFTLTISSLQPEDFATYYCQQSYDTPLTFGGGTKVEIK
3.22 OD	3.56 OD	3.59 OD	373_G02 (antibody, V domains shown, VH/VL only) VH: EVQLLESGGGLVQPGGSLRLSCAASGFTFSSYSMNWVRQAPGKGLEWVSGINYNGGYTSYADSVKGRFTISRDNSKNTLYLQMNSLRAEDTAVYYCARGATWHDTHLDYWGQGTLVTVSS VL: DIQMTQSPSSLSASVGDRVTITCRASQSIITYLNWYQQKPGKAPKLLIYAATSRASGVPSRFSGSGSGTDFTLTISSLQPEDFATYYCQQSYSSPLTFGGGTKVEIK
3.32 OD	3.28 OD	3.31 OD	375_H08 (antibody, V domains shown, VH/VL only) VH: EVQLLESGGGLVQPGGSLRLSCAASGFTFSSYSMNWVRQAPGKGLEWVSGINYNGGYTSYADSVKGRFTISRDNSKNTLYLQMNSLRAEDTAVYYCARGATWHDTHLDYWGQGTLVTVSS VL: DIQMTQSPSSLSASVGDRVTITCRASQSILTYLNWYQQKPGKAPKLLIYAATSLASGVPSRFSGSGSGTDFTLTISSLQPEDFATYYCQQSYDSPLTFGGGTKVEIK
2.92 OD	3.6 OD	3.6 OD	374_A05 (antibody, V domains shown, VH/VL only) VH: EVQLLESGGGLVQPGGSLRLSCAASGFTFSDYGMNWVRQAPGKGLEWVANINYNGGYKGYADSVKGRFTISRDNSKNTLYLQMNSLRAEDTAVYYCARGATWHDTHLDYWGQGTLVTVSS VL: DIQMTQSPSSLSASVGDRVTITCRASQSIVRYLNWYQQKPGKAPKLVIYAATSLASGVPSRFSGSGSGTDFTLTISSLQPEDFATYYCQQSYELPLTFGGGTKVEIK
3.08 OD	3.67 OD	3.57 OD	374_C10 (antibody, V domains shown, VH/VL only) VH: EVQLLESGGGLVQPGGSLRLSCAASGFTFSSYSMNWVRQAPGKGLEWVSSINYNGGYKGYADSVKGRFTISRDNSKNTLYLQMNSLRAEDTAVYYCARGATWHDTHLDYWGQGTLVTVSS VL: DIQMTQSPSSLSASVGDRVTITCRASQSIVTYLNWYQQKPGKAPKLLIYAATSLASGVPSRFSGSGSGTDFTLTISSLQPEDFATYYCQQSYNTPLTFGGGTKVEIK
3.14 OD	3.27 OD	2.96 OD	375_C01 (antibody, V domains shown, VH/VL only) VH: EVQLLESGGGLVQPGGSLRLSCAASGFTFSSYGMNWVRQAPGKGLEWVSSINYNGGYKGYADSVKGRFTISRDNSKNTLYLQMNSLRAEDTAVYYCARGATWHDTHLDYWGQGTLVTVSS VL: not shown
3.29 OD	3.77 OD	3.69 OD	375_F10 (antibody, V domains shown, VH/VL only) VH: EVQLLESGGGLVQPGGSLRLSCAASGFTFSSYSMNWVRQAPGKGLEWVSGINYNGGYTGYADSVKGRFTISRDNSKNTLYLQMNSLRAEDTAVYYCARGATWHDTHLDYWGQGTLVTVSS VL: DIQMTQSPSSLSASVGDRVTITCRASQSILTYLNWYQQKPGKAPKLVIYAATSRASGVPSRFSGSGSGTDFTLTISSLQPEDFATYYCQQSYDTPLTFGGGTKVEIK
3 OD	3.67 OD	3.66 OD	374_G05 (antibody, V domains shown, VH/VL only) VH: EVQLLESGGGLVQPGGSLRLSCAASGFTFSSYSMNWVRQAPGKGLEWVSNINYNSGYKGYADSVKGRFTISRDNSKNTLYLQMNSLRAEDTAVYYCARGATWHDTHLDYWGQGTLVTVSS VL: DIQMTQSPSSLSASVGDRVTITCRASQSIISYLNWYQQKPGKAPKLLIYAATSRASGVPSRFSGSGSGTDFTLTISSLQPEDFATYYCQQSYDLPLTFGGGTKVEIK
3.04 OD	3.3 OD	3.31 OD	374_H05 (antibody, V domains shown, VH/VL only) VH: EVQLLESGGGLVQPGGSLRLSCAASGFTFSSYSMNWVRQAPGKGLEWVAGINYNGGYTSYADSVKGRFTISRDNSKNTLYLQMNSLRAEDTAVYYCARGATWHDTHLDYWGQGTLVTVSS VL: DIQMTQSPSSLSASVGDRVTITCRASQSILSYVNWYQQKPGKAPKLVIYAATSRASGVPSRFSGSGSGTDFTLTISSLQPEDFATYYCQQSYDNPLTFGGGTKVEIK
